This is an account of results in patent US20250270304A1 (PHENOMIC AI, published 2025).

Assay [1] concerns the target T1, Latent Activin A (human, UniProt P08476 21-426, limits assumed).
T1 construct: also called INHBA latent
T1 sequence: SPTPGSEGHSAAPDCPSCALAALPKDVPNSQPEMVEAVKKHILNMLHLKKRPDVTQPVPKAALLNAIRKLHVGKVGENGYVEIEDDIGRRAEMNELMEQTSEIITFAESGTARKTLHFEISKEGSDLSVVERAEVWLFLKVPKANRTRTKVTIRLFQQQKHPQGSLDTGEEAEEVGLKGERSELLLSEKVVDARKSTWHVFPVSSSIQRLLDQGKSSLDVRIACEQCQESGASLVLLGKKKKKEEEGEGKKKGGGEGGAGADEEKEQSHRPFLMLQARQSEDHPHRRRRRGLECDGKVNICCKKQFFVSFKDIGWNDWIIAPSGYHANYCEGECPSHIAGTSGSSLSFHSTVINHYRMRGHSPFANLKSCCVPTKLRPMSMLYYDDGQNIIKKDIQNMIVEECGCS
Briefly: ELISA dose-response, coated antigen. As to the method:
(§1) Antibodies were re-expressed in 40 mL cultures of Expi293 cells and purified using protein G magnetic sepharose beads (Cytiva, Marlborough, MA) to provide larger quantities for secondary screening. Secondary screening included dose responses in both functional assays described above (SMAD nuclear localization and fibroblast activations assays) as well as in binding assays to the same antigens listed in Table 3. Plates were coated with 25 μL of 3 μg/mL antigen in 384-well Maxisorp plates overnight at 4° C. with agitation. The next day, the samples in the plates were blocked with 70 μL blocking buffer (PBS+1% BSA+0.1% Tween-20) for 2 hours at room temperature. Plates were then washed three times with 100 μL of wash buffer (PBS+0.1% Tween-20). Primary antibodies in Expi293 expression medium were diluted 1:3 in blocking buffer, 25 μL added per well, and the plates were incubated for an hour at room temperature with agitation. Plates were then washed three times and 25 μL of secondary antibody (goat anti-Human IgG, HRP conjugated; Jackson Immunoresearch) diluted 1:5000 in blocking buffer was added for 30 minutes at room temperature. The wells in the plates were washed six times with wash buffer and TMB substrate was added followed by 1 M H3PO4.

Assay [2] has as its target T2, Mature Activin A (human, UniProt P08476 311-426).
T2 construct: also called active Activin A; INHBA mature
T2 sequence: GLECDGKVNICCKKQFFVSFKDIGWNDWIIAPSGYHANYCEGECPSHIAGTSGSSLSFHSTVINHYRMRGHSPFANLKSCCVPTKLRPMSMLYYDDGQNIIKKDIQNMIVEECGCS
Briefly: ELISA dose-response, coated antigen. Here is the method:
as §1

Assay [3] addresses T3, Activin B (Homo sapiens (Human), UniProt P09529 293-407).
T3 construct: also called Mature Activin B; mature Activin B
T3 sequence: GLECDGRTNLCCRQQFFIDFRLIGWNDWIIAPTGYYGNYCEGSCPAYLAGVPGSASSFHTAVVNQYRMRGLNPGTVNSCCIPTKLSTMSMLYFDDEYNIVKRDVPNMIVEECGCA
Briefly: ELISA dose-response, coated antigen. Here is the method: as §1
Background: An ELISA detects its analyte on a solid surface through an enzyme-linked reagent.

Assay [4] deals with T3, Activin B. Briefly: ELISA, coated antigen, OD450.
Assay [5] addresses T1, Latent Activin A. Briefly: ELISA, coated antigen, OD450. As to the method:
as §1

Assay [6] addresses T2, Mature Activin A. Briefly: ELISA, coated antigen, OD450. Here is the method:
as §1

In assay [7] the target is T3, Activin B. Briefly: ELISA, coated antigen, OD450. As to the method: as §1
This is another data set of the same source.

The target of assay [8] is T4, Inhibin A (Homo sapiens (Human), UniProt P05111 233-366; P08476 311-426).
T4 sequence 1: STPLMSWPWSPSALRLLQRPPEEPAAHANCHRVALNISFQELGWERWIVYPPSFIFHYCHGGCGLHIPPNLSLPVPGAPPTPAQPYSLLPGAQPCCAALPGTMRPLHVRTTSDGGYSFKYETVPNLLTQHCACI
T4 sequence 2: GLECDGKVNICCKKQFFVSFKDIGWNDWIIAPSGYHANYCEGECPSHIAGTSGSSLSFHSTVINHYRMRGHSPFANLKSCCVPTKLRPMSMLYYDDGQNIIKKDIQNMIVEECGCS
Briefly: ELISA, coated antigen, OD450. As to the method:
as §1

Assay [9] has as its target T4, Inhibin A. Briefly: ELISA, coated antigen, OD450. The source holds these as a separate data set.
The target of assay [10] is T4, Inhibin A. Briefly: ELISA dose-response, coated antigen (row 'Inhibin'). As to the method: as §1
Assay [11] concerns the target T3, Activin B. Briefly: ELISA dose-response, coated antigen; dose-response ELISA, 1:3 dilutions from 133 nM; weak binding within the tested range. As to the method: as §1
The target in assay [12] is T3, Activin B. Briefly: ELISA, coated antigen, OD450; secondary screen, single OD 450 reading as fold over negative control; below the 1.40-fold cut-off. Here is the method: as §1

B1: AB731 (antibody, IgG1, V domains shown)
VH: QVQLQQPGTELVKPGASVKLSCKASGYTFTSYWMHWVKQRPGQGLEWIGNINPSNGGTNYNEKFKSKATLTVDKSSSTAYMQLSSLTSEDSAVYYCSITTVVAYWYFDVWGTGTTVTVSS
VL: ENVLTQSPAIMSASPGEKVTISCSASSSVSYMYWYQQKPGSSPKPWIFRTYNLASGVPARFSGSGSGTSYSLTISNMEAEDAATYYCQQRSSYPWTFGGGTKLEIK
notes: also called clone 731
The term EC50 denotes the concentration needed to bring the measured effect to its halfway point. As to B1, the EC50 was 870 pM in the assay with Latent Activin A [1], 420 pM with Mature Activin A [2] and 490 pM with Activin B [3].

B2: AB326 (antibody, IgG1, V domains shown)
VH: QVQLVQSGAEVKKPGASVKVSCKVSGYTFTSSAISWVRQAPGKGLEWMGGIYPGSGHTIYAQKFQGRVTMTEDTSTDTAYMELSSLKSEDTAVYYCAREGDIFVMDVWGLGTAVTVSS
VL: DIQMTQSPSSVSASVGDRVTITCRASMDIRNDLAWYQQKPGKAPKLLIYDASKLETGVPSRFSGSGSGTDFTLTISSLQPEDFANYYCQQAKSFPPTFGGGTKVEIK
B2: the binding result with Activin B [4] was “no binding (tested: 1.40-fold over BSA)”. For the same molecule, the “fold-change of OD 450 over negative control (BSA)” value (from here on “fold-change”) with Latent Activin A [5] came out at 5.91 fold; with Mature Activin A [6], 6.01 fold; in the assay with Activin B [7], 0.58 fold; with Inhibin A [8], 8.53 fold.

B3: AB854 (antibody, IgG1, V domains shown)
VH: EVQLVQSGAEVKKPGASVKVSCKASGYTFPSHYISWVRQAPGQGLEWMGGMNPITGHTIYAQKLQGRGTMTTDPSTSTAYMELRSLRSDDTAVYYCARDMRYDILPGRSYYYGMDVWGQGTTVTVSS
VL: ESALTQPASVSGSPGQSITISCTGTTGSIASNYVSWYQQHPGKAPKLMIYDTTNRPPGVSNRFSGSKSGNTASLTISGLQAEDEADYYCQSTERGRSDVIFGGGTKLTVL
notes: also called clone 854
Take B3: the EC50 with Latent Activin A [1] turned out to be 1000 pM; with Mature Activin A [2], 30 pM; with Activin B [3], 270 pM.

B4: AB347 (antibody, IgG1, V domains shown)
VH: QVQLQESGPGLVKPSQTLSLTCTVSGFPLSTSRMGVNWIRQPPGKGLEWIGYINPSGATDYNPSLKSRVTMSVDTSKNQFSLKVNSVTAADTAVYYCARAGYPDVWGKGTTVTVSS
VL: EIVMTQSPATLSLSPGERATLSCRASQNIGHSLAWYQQKPGQAPRLLIYGASIRAPGIPARFSGSGSGTDFTLTISSLEPEDFAVYYCQQYITWPSTFGGGTKVEIK
Take B4: the “fold-change” value in the assay with Latent Activin A [5] was 10.2 fold; with Mature Activin A [6] it was 10.2 fold; in the assay with Activin B [7] it was 2.54 fold; with Inhibin A [8], 0.74 fold. Further, the figures for the EC50 with Latent Activin A [1], in the assay with Mature Activin A [2] and with Activin B [3] were 2460 pM, 720 pM and 950 pM, respectively.

B5: AB350 (antibody, IgG1, V domains shown)
VH: QVQLQESGPGLVKPSQTLSLTCTVSGVSLSDARMGVNWIRQPPGKGLEWIGYVSTTGTTDYNPSLKSRVTMSVDTSKNQFSLKVNSVTAADTAVYYCARAGYPDVWGKGTLVTVSS
VL: EIVMTQSPATLSLSPGERATLSCRASESVRSNLAWYQQKPGQAPRLLIYGASNRASGIPARFSGSGSGTDFTLTISSLEPEDFAVYYCQQYHTWPPWAFGGGTKVEIK
For the molecule B5, the binding result with Activin B [4] and in the assay with Inhibin A [9] was “no binding (tested: 1.40-fold over BSA)” each time. Also, the “fold-change” value worked out at 7.33 fold with Latent Activin A [5], 10.6 fold with Mature Activin A [6], 0.74 fold in the assay with Activin B [7] and 0.65 fold with Inhibin A [8].

B6: AB353 (antibody, IgG1, V domains shown)
VH: QVQLQESGPGLVKPSQTLSLTCTVSGLSLSNAKMGVNWIRQPPGKGLEWIGYVSTTGTTDYNPSLKSRVTMSVDTSKNQFSLKVNSVTAADTAVYYCARAGYPDVWGKGTTVTVSS
VL: EIVMTQSPATLSLSPGERATLSCRASQNVYTNLAWYQQKPGQAPRLLIYGASARASGIPARFSGSGSGTDFTLTISSLEPEDFAVYYCLQYGSSPPLFGGGTKVEIK
For the molecule B6, the binding result in the assay with Activin B [4] and with Inhibin A [9] was “no binding (tested: 1.40-fold over BSA)” throughout. The “fold-change” value in the assay with Latent Activin A [5] came to 4.4 fold; with Mature Activin A [6] it was 8.98 fold; in the assay with Activin B [7] it was 0.72 fold; with Inhibin A [8], 0.61 fold.

B7: AB340 (antibody, IgG1, V domains shown)
VH: EVQLVESGGGLVQPGGSLRLSCAASGFTASRNYMSWVRQAPGKGLELVASISGSGDYTYYPDSVKGRFTISRDNAKNSLYLQMNSLRAEDTAVYYCARSPRGPRLLGYYYGMDVWGQGTTVTVSS
VL: DIVMTQSPLSLPVTPGEPASISCRSSRSLVHGSGHNYLHWYLQKPGQSPQLLIYGASTRVAGVPDRFSGSGSGTDFTLKISRVEAEDVGVYYCMQGTQAPRTFGGGTKVEIK
With B7, the binding result with Activin B [4] and in the assay with Inhibin A [9] was “no binding (tested: 1.40-fold over BSA)” in each case. Also, the “fold-change” value turned out to be 1.9 fold with Latent Activin A [5], 2.33 fold with Mature Activin A [6], 1.04 fold with Activin B [7] and 1.11 fold in the assay with Inhibin A [8].

B8: AB843 (antibody, IgG1, V domains shown)
VH: EVQLVQSGAEVKKPGASVKVSCKASGDTSSHSHIHWVRQAPGQGLEWMGWINPRSGATNYAQKLQGRGTMTTDPSTSTAYMELRSLRSDDTAVYYCARDRGGRTNGVGAFDIWGQGTMVTVSS
VL: ESALTQPASVSGSPGQSITISCTGTSGDIGRYNYVSWYQQHPGKAPKLMIYEDIERPSGVSNRFSGSKSGNTASLTISGLQAEDEADYYCQVWDATLDLVFGGGTKLTVL
Consider B8, for which the “fold-change” value came to 24.9 fold in the assay with Latent Activin A [5], 24.7 fold in the assay with Mature Activin A [6], 24.6 fold with Activin B [7] and 22.9 fold with Inhibin A [8]. In addition, the concentration giving a half-maximal response (EC50) in the assay with Latent Activin A [1] was 40 pM; with Mature Activin A [2] it was 20 pM; with Activin B [3] it was 30 pM; in the assay with Inhibin A [10] it was 50 pM.

B9: AB852 (antibody, IgG1, V domains shown)
VH: QVTLRESGPALVKPTQTLTLTCTVSGFSLSDTRWGVNWIRQPPGKALEWIGYINDRGTTDYNSALKSRLTISKDTSKNQVVLTMTNMDPVDTATYYCAHTLHTREFVGMDVWGQGTTVTVSS
VL: DIVMTQSPDSLAVSLGERATINCKSSQSVLDTSTNRNYLAWYQQKPGQPPKLLIYGASIRAGGVPDRFSGSGSGTDFTLTISSLQAEDVAVYYCQQYETWPWTFGGGTKVEIK
As to B9, the “fold-change” value in the assay with Latent Activin A [5] is 6.01 fold; with Mature Activin A [6], 8.73 fold; in the assay with Inhibin A [8], 0.94 fold; with Activin B [12], 0.88 fold. Further, the figures for the half-maximal effective concentration (EC50) in the assay with Latent Activin A [1], with Mature Activin A [2] and with Activin B [11] were 40900 pM, 2730 pM and 21300 pM, respectively.
